From PMC8794893 (Proceedings of the National Academy of Sciences of the …, 2022)

Key:
[1] = target: T1, Archaeoglobus fulgidus DsrAB dissimilatory sulfite reductase (Archaeoglobus fulgidus VC-16 …, UniProt Q59109 1-418; Q59110 1-366); assay: MST
[2] = target: T1, Archaeoglobus fulgidus DsrAB …; assay: SPR

T1 sequence (Q59109 whole entry, chain 1 of 2): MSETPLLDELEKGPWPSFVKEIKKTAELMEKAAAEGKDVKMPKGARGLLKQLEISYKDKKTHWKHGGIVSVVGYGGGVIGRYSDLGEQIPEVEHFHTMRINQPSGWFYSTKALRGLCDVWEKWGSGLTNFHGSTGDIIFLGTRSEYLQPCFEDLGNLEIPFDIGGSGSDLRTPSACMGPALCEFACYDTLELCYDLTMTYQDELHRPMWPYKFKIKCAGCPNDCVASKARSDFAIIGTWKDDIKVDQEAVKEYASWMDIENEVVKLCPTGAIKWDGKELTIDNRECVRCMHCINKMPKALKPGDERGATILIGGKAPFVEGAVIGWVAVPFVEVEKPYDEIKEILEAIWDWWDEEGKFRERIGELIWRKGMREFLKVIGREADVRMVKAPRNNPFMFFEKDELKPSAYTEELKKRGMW
T1 sequence (Q59110 whole entry, chain 2 of 2): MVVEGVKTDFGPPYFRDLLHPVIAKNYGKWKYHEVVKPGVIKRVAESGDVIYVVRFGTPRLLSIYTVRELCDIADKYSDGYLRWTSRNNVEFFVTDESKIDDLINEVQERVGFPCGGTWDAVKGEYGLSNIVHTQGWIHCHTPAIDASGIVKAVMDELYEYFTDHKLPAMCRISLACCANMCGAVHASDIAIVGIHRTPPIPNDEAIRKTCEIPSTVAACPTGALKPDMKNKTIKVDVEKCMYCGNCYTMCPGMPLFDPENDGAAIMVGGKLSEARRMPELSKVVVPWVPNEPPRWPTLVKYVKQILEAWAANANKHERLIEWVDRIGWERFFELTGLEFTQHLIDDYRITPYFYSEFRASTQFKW

B1: recombinant Archaeoglobus fulgidus DsrD with C-terminal His-tag (natural protein, Archaeoglobus fulgidus VC-16, UniProt P70742 1-77, looked up)
chain: MADYTEEDKQKVLAQLSKKTWKIPELAKILKMDKKVVKKIVQDLINEGVAGYWSSGSTTYVATKEYIEELEKKRAEG
modifications: RED-NHS dye on amines (Monolith NT Protein Labeling Kit RED-NHS second generation), in the MST experiment only
- Kd [1]: 350 ± 60 nM
- Kd [2]: 540 ± 20 nM
